Numbering of substitutions follows the chain as printed.
B1: M3A01 (antibody, V domains shown)
VH: EVQLVESGGGLVKPGGSLRLSCSVSAFSISGYNMHWVRQAPGKGLEWVSSITGGSNYINYADSVKGRFTISRDNAQNSLYLQMKSLRAEDTAVYYCARETQPSPGSFDSWGQGTLVTVSS
VL: QSVLTQPPSVSGAPGQRVTISCTGSSSNIGAGYDVNWYQQLPGTAPKLLIYGNYNRPSGVPDRFSASKSGTSASLAITGLQAEDEADYWCQSYDTSLSGWIFGGGTKLTVL
notes: IgG
B2: M3E04 (antibody, V domains shown)
VH: EVQLVESGGGLVKPGGSLRLSCAGSGFTFSSYSMNWVRQAPGKGLEWVSSISASSSYIYYADSLKGRFTISRDNAKNSLYLQMNSLRAEDTAVYYCARANYGSGNYYNPKWFDPWGQGTLVTVSS
VL: B1 VL with N36H, L41F, L48V, Y54N, A66G, T78S, W89Y, T95S, W100S
notes: IgG
B3: M3C11 (antibody, V domains shown)
VH: QVQLQESGPGLVKPSETLSLTCTVSGGSLSSYCWSWIRQPPGKGLEWIGYIYYSGGTNYNPSLKSRVTISVDTSKNQFSLNLSSVTAADTAVYYCARGEASGYLNYYFDYWGQGTLVAVSS
VL: SYELTQPPSVSVSPGQTASITCSGHKLGDKYAYWYQQKPGQSPVLVIYQDNKRPSGIPERFSGSNSGNTATLTISGTQAMDEADYYCQAWDSGTVFGGGTKLTVL
notes: IgG
B4: M3D10 (antibody, V domains shown)
VH: QVQLQESGPGLVKPSETLSLTCTVSGGSVSTYYWTWIRQPPGKGLDWIGYIYHNGNINYNPSLKSRVTMSVDTSKNQFSLKLTSVTAADTALYYCATVSFIGYSLYYFDRWGQGTLVTVSS
VL: DIQMTQSPSSLSASVGDRVTITCRASQNIASFLNWYQQRPGKAPDLLIYAASTLQTGVPSRFSGSGSGTDFTLAISSLQPEDFATYYCQQSYNTPFTFGQGTKLEIK
notes: IgG
B5: M3E10 (antibody, V domains shown)
VH: QVQLVQSGAEVKKPGSSVKVSCKASGGTINSYAISWVRQAPGQGPEWLGGIIPIFGTANYAQNFPGRVTITADASTSTVYMELSSLRSDDTAIYYCARGTRYIAVMVPSMQDYYFFGMDVWGQGTTVTVSS
VL: DIQLTQSPSFLSASVGDRVTITCRASQGISSYLAWYQQKPGQAPKLLIYAASTLQSGVPSRFSGSGSGTEFTLTISSLQPEDFATYYCQQVTSYPFSITFGQGTRLEIK
notes: IgG
B6: M3D05 (antibody, V domains shown)
VH: QVQLVQSGAEVKQPGASVKVSCKASGYTFSGYYIQWVRQAPGQGLEWMGWINPNSGGTNFAQKFQGRVTMTSDTSTSAAYMELSSLRSDDTAVYYCVRGQQLTRQYYFGMDVWGQGTTVTVSS
VL: QSVLTQPPSVSGAPGQRVIISCSGSSSNIRSNAVNWYQQLPGKAPKLLIFYDGLLPSGVSDRFSGSKTGNSASLAISGLQSEDEADYYCAAWDDSLNGPVFGGGTKLTVL
notes: IgG
B7: M2B06 (antibody, V domains shown)
VH: QVQLQESGPRLVKPSGTLSLTCAVSGASITSSHWWTWVRQPPGKGLEWIGRIFHSGSTNYNPSLKSRVTISLDKSRNQFSLTLTSVTAADTAVYYCARDDQIVVMPAGFDRWGQGALVIVSS
VL: DIQMTQSPSSLSASVGDRVTITCRASQTISSYLNWYQQTPGKAPNLLIYGASRLQGGVPSRFSGSGSGTDFTLTISSLQPEDFAIYFCQQSKSIPYTFGQGTRLEIK
notes: IgG
B8: M1A04 (antibody, V domains shown)
VH: EVQLVESGGGLVRPGGSLRLSCAASGFNVRNYYMSWVRQAPGKGLEWISVIYGGGTTFYAGSVKGRFTISRDDSKSTLFLQMNSLRADDTAVYYCARDPGTVMSTENLQGMDVWGQGTTVTVSS
VL: DIQMTQSPSSLSASVGDRVTITCRASQTIRSYLNWYQQKPGKAPNLLIYAATSLQSGVPSRFSGSGSGTDFTLTISSLQPEDSATYYCQQSFSTLYSFGQGTRLEIK
notes: IgG
B9: M2C07 (antibody, V domains shown)
VH: QVQLQESGPGLVAPSQTLSLICDVSGDSVTSGAYSWSWIRQHPVKGLEWIAYINYSGRTNYNPSLQSRLVISVDRSKNQFSLRLSSVTAADTAVYYCARANVVGYSGFYFDYWGQGTLVAVSS
VL: DIQMTQSPSSLSASVGDTVTITCRASQSVGAYLNWYQQKPGKAPKLLVFAGSSLQTGVPSRFSGRGSRTEFTLTITNLQREDFASYYCQQSLGDFLTFGGGTKVEIK
notes: IgG
B10: M2D03 (antibody, V domains shown)
VH: B9 VH with Y34H, F108Y
VL: B9 VL with T18R, V48I, T76S, S85T
notes: IgG
B11: M3A08 (antibody, V domains shown)
VH: EVQLVESGGGLVKPGGSLRLSCAASGFSITSYGMHWVRQAPGKGLEWVSSISSSSSYISYRDSVKGRFTVSRDNAGNSLSLQMNSLRGEDTAVYHCARDAGLVPPWMDSWGQGTLVIVSS
VL: QSVLTQPPSVSGAAGQRVTISCTGSSSNLGTGYDVHWYRQQPGTAPKLIMFGNTNRPSGVPGRFSGSRSGTSASLAITGLQADDEADYYCQSYDSSLGGLVFGGGTKLTVL
notes: IgG
B12: M4A06 (antibody, V domains shown)
VH: EVQLVESGGGLVRPGGSLRLSCAASGFSLTTDEVNWVRQAPGKGPEWVSFISASGHTIYYADSVKGRFTISRDNGRNSVYLQMNSLRAEDTAVYYCARVGRLGGVGYYYALGPFDLWGQGTMVTVSS
VL: EIVLTQSPGTLSLSPGERATLSCRASQSITSNYLAWYQQKPGQAPRLLIYGASSRATGIPDRFSGSGSGTDFTLTISRLQPEDFAVYYCQQYGSSLYIFGQGTKLEIK
notes: IgG
B13: M2D11 (antibody, V domains shown)
VH: QVQLQQWGAGLLKPSETLSLTCAVSGGSFSGYHWTWIRQPPGKGLEWIGEVDHGGNTNYNPSLMSRVTISVDMSTKQFSLRLTSMTAADTAVYYCARGFGVVINNWFDPWGQGTLVTVTS
VL: DIQMTQSPSSLSASVGDRVTITCRASQTISSYLNWYQQKPGKAPNLLIYTVSTLQSGVPSRFSGSGSGTDFTLTISSLQPEDFATYYCQQSYGAPYTFGQGTKLEIK
notes: IgG

Biological target: T1, Unprocessed hMPV PreF trimer (human metapneumovirus, strain B2)
T1 construct: also called Unprocessed hMPV WT PreF trimer; unprocessed hMPV PreF trimeric antigen
Test: BLI, mAb on anti-human Fc sensor

Binder	Octet binding response [nm]
B1	0.251
B2	0.3
B3	0.317
B4	0.38
B5	0.351
B6	0.338
B7	0.389
B8	0.453
B9	0.418
B10	0.425
B11	0.422
B12	0.36
B13	0.41

Biological target: T2, Processed stabilized hMPV PreF trimer (115BV) (human metapneumovirus, strain B2)
T2 construct: also called Processed hMPV PreF trimer; processed PreF
Test: BLI, mAb on anti-human Fc sensor

Binder	Octet binding response [nm]
B1	0.261
B2	0.0401
B3	0.0794
B4	0.397
B5	0.17
B6	0.0831
B7	0.401
B8	0.557
B9	0.44
B10	0.466
B11	0.249
B12	0.281
B13	0.436

Biological target: T3, hMPV PostF trimer (human metapneumovirus, strain B2)
T3 construct: also called MPV PostF (dPFv1)
Test: BLI, mAb on anti-human Fc sensor

Binder	Octet binding response [nm]
B1	-0.062
B2	0.0262
B3	0.433
B4	0.473
B5	0.0082
B6	0.539
B7	0.436
B8	0.618
B9	0.454
B10	0.503
B11	-0.0217
B12	0.449
B13	0.43

Biological target: T2, Processed stabilized hMPV PreF trimer …
Test: BLI, ratio to unprocessed PreF trimer

Binder	processed/unprocessed PreF trimer binding ratio
B1	1.04
B2	0.13
B3	0.25
B4	1.04
B5	0.48
B6	0.25
B7	1.03
B8	1.23
B9	1.05
B10	1.1
B11	0.59
B12	0.78
B13	1.06

Reference: patent publication US20240327502A1 (Merck Sharp & Dohme, published 2024)
